This note sets out measurements from the supplement of paper PMC9732359.

± gives the uncertainty stated by the source.

A short description of this data set: protein stability index of a GFP-peptide fusion (yeast GPS) (PSI 1-4); higher = more stable; sorted into four equal gates, so the index is relative within each strain. The method in brief:
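For each peptide, the protein stability index sums the read frequency in every gate after multiplying it by the gate number. Read frequencies came from plasmids that were PCR-amplified from each gate and Illumina-sequenced, with reads assigned to strains by barcodes. The gates were four equal bins of GFP/Cherry fluorescence ratio applied to mid-log yeast in leucine-free medium carrying a pooled library of tiled 17-residue yeast protein peptides fused downstream of GFP on a Cherry-expressing plasmid.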

DGIVVKNAVVRSKFGGD [ARP7]: the protein stability index runs as follows: (doa10∆) 3.24 ± 0.26; (pdr5∆) 1.92 ± 0.2; (san1∆) 3.16 ± 0.25; (ubr1∆) 3.56 ± 0.2.

SLSIKLATLHYQKKQYK [RPN6]: the protein stability index reads like this: (doa10∆) 1.33 ± 0.064; (pdr5∆) 1.28 ± 0.061; (san1∆) 1.34 ± 0.11; (ubr1∆) 1.34 ± 0.079.

With ILDLKEFDRRILKKSLM [RTT102], the protein stability index is 3.47 ± 0.23 (pdr5∆), 3.19 ± 0.099 (san1∆) and 3.22 ± 0.28 (ubr1∆).

With SRKGIAFGLGAIMSKSS [ECM29], the protein stability index was determined as 1.61 ± 0.058 (doa10∆), 1.86 ± 0.054 (pdr5∆), 1.64 ± 0.08 (san1∆) and 1.74 ± 0.036 (ubr1∆).

Turning to SRGESDDSLNRLAQNDG [RPS21A], the protein stability index is, setting by setting: (doa10∆) 2.72 ± 0.19; (pdr5∆) 2.9 ± 0.14.

Turning to VASRHPSESEHPIRVLM [YDL116W/NUP84], the protein stability index (pdr5∆) turned out to be 3 ± 0.25 and the protein stability index (san1∆) came to 2.9 ± 0.23.

Consider DEDDDLDEDDVNADDDD [RPB4], for which the protein stability index by setting is: (doa10∆) 3.12 ± 0.1; (pdr5∆) 3.13 ± 0.086; (san1∆) 2.09 ± 0.16; (ubr1∆) 3 ± 0.11.

Regarding EETSHLLTVTPGPRLLY [RPN10], the protein stability index (doa10∆) was found to be 2.61 ± 0.06, the protein stability index (pdr5∆) was determined as 2.69 ± 0.074, the protein stability index (san1∆) was determined as 2.54 ± 0.091 and the protein stability index (ubr1∆) stood at 3.06 ± 0.057.

On to ARQFGYVILTTSAGIMD [RPS22A], for which the protein stability index was determined as 1.37 ± 0.048 (doa10∆), 1.33 ± 0.045 (pdr5∆), 1.17 ± 0.094 (san1∆) and 1.25 ± 0.037 (ubr1∆).

In the case of EQQWITRAQYLAFAKLV [SRP68], the protein stability index is, setting by setting: (doa10∆) 1.63 ± 0.06; (pdr5∆) 1.51 ± 0.051; (san1∆) 1.33 ± 0.086; (ubr1∆) 1.5 ± 0.051.

For HRDKNKMDMICRNINRK [DIS3], the protein stability index runs as follows: (doa10∆) 2.32 ± 0.081; (pdr5∆) 2.99 ± 0.17; (san1∆) 2.41 ± 0.083; (ubr1∆) 3.33 ± 0.12.

As to SQASSDLGETFRGIIRS [CSL4], the protein stability index reads like this: (doa10∆) 3.17 ± 0.14; (pdr5∆) 2.96 ± 0.081; (san1∆) 3.3 ± 0.096; (ubr1∆) 3.24 ± 0.073.

In the case of SEIKQQINKAQILENYN [YJL039C/NUP192], the protein stability index runs as follows: (doa10∆) 2.94 ± 0.089; (pdr5∆) 3.17 ± 0.069; (san1∆) 2.73 ± 0.091; (ubr1∆) 3.11 ± 0.057.

On to RTIGIAVDHRRQNRNQE [RPL13A], for which the protein stability index is 2.65 ± 0.18 (doa10∆), 2.7 ± 0.13 (pdr5∆), 3.14 ± 0.16 (san1∆) and 2.86 ± 0.22 (ubr1∆).

Where the note is “doa10∆”, ILEELDFVRNELNDIDT [SMC3] gave a protein stability index of 3.08 ± 0.2.

As for YPDLKAFHNNLKFLYLL [MED1], the protein stability index amounted to 2.06 ± 0.059 (doa10∆), 2.04 ± 0.05 (pdr5∆), 1.83 ± 0.074 (san1∆) and 1.93 ± 0.037 (ubr1∆).

With LAIIGDENPDLLGYTGI [PRE8], the protein stability index (doa10∆) is 1.71 ± 0.06, the protein stability index (pdr5∆) was found to be 1.93 ± 0.081, the protein stability index (san1∆) was determined as 2.73 ± 0.098 and the protein stability index (ubr1∆) amounted to 1.93 ± 0.054.

As to GIVDELAYAVLGIALIA [RPN1], the protein stability index reads like this: (doa10∆) 1.76 ± 0.1; (pdr5∆) 1.42 ± 0.1; (san1∆) 1.48 ± 0.16; (ubr1∆) 1.17 ± 0.062.

With GAAFKVISNLVPKLESS [YJL039C/NUP192], the protein stability index (doa10∆) stood at 2.86 ± 0.16, the protein stability index (pdr5∆) turned out to be 2.59 ± 0.11, the protein stability index (san1∆) is 2.58 ± 0.24 and the protein stability index (ubr1∆) stood at 2.18 ± 0.12.

Take KYSKLVDNVTLESYKTQ [SRP72]: the protein stability index stood at 3.54 ± 0.15 (doa10∆), 3.22 ± 0.16 (pdr5∆), 3.42 ± 0.1 (san1∆) and 3.22 ± 0.11 (ubr1∆).

Take LGGPITKESQPTIEEDL [FAS2]: the protein stability index came out at 3.02 ± 0.21 (doa10∆), 3.19 ± 0.15 (pdr5∆), 2.77 ± 0.18 (san1∆) and 2.96 ± 0.069 (ubr1∆).

As for IIVPDLIELKSDLLVAP [YML103C/NUP188], the protein stability index amounted to 1.65 ± 0.052 (doa10∆), 1.8 ± 0.056 (pdr5∆), 1.95 ± 0.094 (san1∆) and 1.69 ± 0.059 (ubr1∆).

RSLLLSRVRADDLSTRF [RRP43]: the protein stability index came out at 2.89 ± 0.21 (doa10∆), 3.63 ± 0.17 (pdr5∆) and 2.92 ± 0.16 (ubr1∆).

STVAKNVSFVLPDEKSD [YCG1]: the protein stability index is, setting by setting: (doa10∆) 3.2 ± 0.058; (pdr5∆) 3.16 ± 0.037; (san1∆) 3.09 ± 0.041; (ubr1∆) 3.01 ± 0.038.

SVEAYLVSLFEDTNLAA [HHT1]: the protein stability index is 2.86 ± 0.26 (pdr5∆), 2.59 ± 0.15 (san1∆) and 3.06 ± 0.14 (ubr1∆).

Regarding ATYMDNDIAGQPQALQK [RPO21], the protein stability index by setting is: (doa10∆) 2.56 ± 0.077; (pdr5∆) 2.49 ± 0.078; (san1∆) 2.5 ± 0.073; (ubr1∆) 2.7 ± 0.051.

Turning to NGKDSEIMYTGVSISVS [SMC3], the protein stability index is 3.29 ± 0.22 (doa10∆), 2.87 ± 0.21 (pdr5∆), 2.83 ± 0.1 (san1∆) and 2.29 ± 0.17 (ubr1∆).

With ASLDGTIRLWECGTGTT [RPN14], the protein stability index by setting is: (doa10∆) 2.8 ± 0.093; (pdr5∆) 2.91 ± 0.13; (san1∆) 3.19 ± 0.069; (ubr1∆) 2.78 ± 0.12.

Sequence LTFHTLKKANIIYHTTF [YLR018C/POM34] yielded a protein stability index (doa10∆) of 1.9 ± 0.036, a protein stability index (pdr5∆) of 2.25 ± 0.038, a protein stability index (san1∆) of 2 ± 0.05 and a protein stability index (ubr1∆) of 1.98 ± 0.028.

Consider AQFYLGKRIAYVYRASK [RPL33A], for which the protein stability index (doa10∆) was 1.81 ± 0.068, the protein stability index (pdr5∆) came out at 1.62 ± 0.076, the protein stability index (san1∆) is 1.36 ± 0.096 and the protein stability index (ubr1∆) was determined as 1.74 ± 0.069.

Regarding KIDKPIRTQVNTGGESV [RGR1], the protein stability index was 2.4 ± 0.06 (doa10∆), 2.4 ± 0.044 (pdr5∆), 2.32 ± 0.052 (san1∆) and 2.25 ± 0.036 (ubr1∆).

Take RQMNLVITLLNNSSITL [YCS4]: the protein stability index runs as follows: (doa10∆) 1.37 ± 0.05; (pdr5∆) 1.18 ± 0.039; (san1∆) 1.19 ± 0.08; (ubr1∆) 1.35 ± 0.035.

FEFNIRHSGKVYPITLS [UBP6] displayed a protein stability index (doa10∆) of 1.74 ± 0.11, a protein stability index (pdr5∆) of 2.51 ± 0.12, a protein stability index (san1∆) of 2.89 ± 0.089 and a protein stability index (ubr1∆) of 1.22 ± 0.056.

Take SDIVFIHQNAGRLLRAM [BRR2]: the protein stability index is, setting by setting: (doa10∆) 1.73 ± 0.054; (pdr5∆) 1.71 ± 0.054; (san1∆) 1.9 ± 0.071; (ubr1∆) 2.02 ± 0.06.

With LDSMIELFKDYKPGSIT [MED1], the protein stability index by setting is: (doa10∆) 2.15 ± 0.074; (pdr5∆) 1.94 ± 0.047; (san1∆) 1.82 ± 0.1; (ubr1∆) 1.99 ± 0.052.

With ANGTVVSFIKNGEEIVG [MTR3], the protein stability index reads like this: (doa10∆) 1.34 ± 0.07; (pdr5∆) 1.6 ± 0.13; (san1∆) 1.45 ± 0.21; (ubr1∆) 1.91 ± 0.11.

Consider VIWELDDSANIVNVNFM [DIS3], for which the protein stability index runs as follows: (doa10∆) 2.96 ± 0.049; (pdr5∆) 2.85 ± 0.057; (san1∆) 3.21 ± 0.042; (ubr1∆) 2.99 ± 0.045.

Sequence SDIIILKGEIEDYPMSS [SIR4] returned a protein stability index (san1∆) of 3.12 ± 0.24 and a protein stability index (ubr1∆) of 3.48 ± 0.16.
